A short description of the data set: soluble fraction after stress (log2 fold change); higher = more stays soluble; pooled small domains, quantitative proteomics. The settings on record: stress: 75 degC.
In the case of “HMRSNIYTEEKLWTVLQDFFQENRYLTISLMRMKFGLSRHMAQKWIDHFIAKGLLVKDGTPRSPIYFLND”, the “soluble fraction (log2)” value was -2.46.

For the sequence “HMRSNQKVSQIAISQVLPGMVTAKNVYSRNDQLILNRETTLDSTKIAKIMFYAIESIYVYEPE”, the “soluble fraction (log2)” value is -2.21.

With “HMRSPVDALSNRELQVLQMVGRGLSSRQVAEALHLSVKTVEAHRQRIKGKLGLRTGAQLVQFAANWVTG”, the “soluble fraction (log2)” value was -1.75.

For “HMRSREGVRWIIRERIMEELQERHHMDDGELLEMIDRSIGEMGQEIFLPLKERIWLRGSLFDSFR”, the “soluble fraction (log2)” value is -3.07.

In the case of “HMRSWRDQRVDDLLAAVSELGMTMSRAAAGDLLDQRVEYVANQMRVTPATARKYLTEETLAGMAREIVFG”, the “soluble fraction (log2)” value is -1.02.

In the case of “HMRTAFPQLTERELEILDLIAAGRNNAQIASALYLAPKTVRNNVSNILAKLQATDRAEAIIRARDAGLGG”, the “soluble fraction (log2)” value is -0.201.

For the sequence “HMRTAKEVFYKELKGYMQNGDELSVKKIYSLFPEINPKTVSWRLHELVQHGKIHRTGHGYYALTQ”, the “soluble fraction (log2)” value was -1.37.

As for “HMRTDTIINSGGLKINPEEVENEILKSLGDNNFFIDKIKNDKFGEEIILIALKKIKINLLIESLNLI”, the “soluble fraction (log2)” value was found to be 0.0576.

Consider “HMRTFFEIEQLKAYVGEEIQVKFEADSHKQTVLGKLISISEDFIEIENSKKGNLKISLDNYLTSKLIY”, for which the “soluble fraction (log2)” value is -2.23.

As for “HMRTGSSVLVGLVAPVRLGATGAPKVFADGALWEARSAVPLNDGQLVEITGTDGLTVLVKPSA”, the “soluble fraction (log2)” value was -0.122.

Consider “HMRTIVSELNDIKGISDASAKKLLIRYGSFEAVREAVMKHEEEFELDMGKRITGALTRYFYEE”, for which the “soluble fraction (log2)” value is -1.78.

Take “HMRTKLEEAVEWLQEQLNDGPVLSKELESEAKAADILPGTLRRAGEALGVVKQKQGGRGGWTWSLPR”: the “soluble fraction (log2)” value was -0.017.

On to “HMRTLGADLRALRKARGLTLAGMADNMGKSVGWMSQIERDISEPSISDLRALAKLLDVSVSSLFR”, for which the “soluble fraction (log2)” value is -2.54.

In the case of “HMRTQEELVAEVREQMEAMGTIATLYVELYESSEERLVGGVIFEDERHYRFVYEDGLLHYEEEK”, the “soluble fraction (log2)” value is -0.527.

Take “HMRTRSDVKRAAIIQAAKDAFQEYGVNATSMDKLAEMASVSKRTVYNHFSAKEELVMHIVKE”: the “soluble fraction (log2)” value was determined as 0.538.

For “HMRTVPEALLGRAYETAETAIVLEGLEAKRTDVFHPTIGNGTVIRLEPASGSQVSAGGVIEIFVSKGTETI”, the “soluble fraction (log2)” value was -0.346.

With “HMRVDYKTQLQELLQRQGAAAPQYRLLVEEGPAHLRRFQVGVYFQGRLLGTGWGRNKKEAEQEAARQALMP”, the “soluble fraction (log2)” value is -1.9.

Take “HMRVEEVGYGEFLQMAEERDLAEVQVTDTEIIFSDKDTPPNYYKTGRMDDPFLVDRLYSAGIRDFGE”: the “soluble fraction (log2)” value is -0.136.

For “HMRVESVGDRIRRLRKSLGLTQVKLAQMLGIKAPSVVQWESDKTNLSGENLLNAAKLFGVTPDYILYGG”, the “soluble fraction (log2)” value was -0.197.

As for “HMRVLEYTADGSRLDVLLSQDGVLSRSRAAELIKGGAVTVDGRAEGKPSAKPAPGALVRVEVPE”, the “soluble fraction (log2)” value stood at 0.0615.

For the sequence “HMRVVGRNHYDDADLAHIRSVIQLEARPLNVSRIARTLANEYPKHTYWSYLSFLQKNLRDRPDLF”, the “soluble fraction (log2)” value was -1.96.

With “HMRVVPEILERAVAVFEALGVDRLPSSTLADRLGYDSPEALADVLRPLGVRPKKYRDGKSTARGYLAADLG”, the “soluble fraction (log2)” value was -0.526.

As for “HMRYEESVTLGERLLNQSLVALKADNIDDALWERFLREEAGEKSRQEILSDIGLGKRLPVVVAKRLLAPS”, the “soluble fraction (log2)” value is -0.115.

Regarding “HMRYPLPYAFARSQQLLLEETDDGRYTLWMSSHPARSAVGEVSRKYGVQTFEVLADGPLAQRISAAYAQ”, the “soluble fraction (log2)” value is -0.983.

Turning to “HMRYTAAEMAKKLDISRSYLYYLKEAGVVEIEKNENGKPIWTESVYNQLFEYIKKNHRTEEADNTQ”, the “soluble fraction (log2)” value was -0.805.

“HMSAAIGEAVIATDEINVRSGPGLSHEIVSVVSRNESYPILEERGDWVQIQLNGGQKGWVVSWLIKKKS”: the “soluble fraction (log2)” value is -0.665.

“HMSAAMTESVLDGIPGLGATRKAALLAHFGSVRKLRAATSEQVREVPGIGPRLAETILATLHEP”: the “soluble fraction (log2)” value was -0.52.

For the sequence “HMSAATGIINTDNVNIRSGPATTYDAVGRLNQGSSVEILSSRNDWYQIQANSLKGWVRNDLLNVQK”, the “soluble fraction (log2)” value was -0.00758.

As to “HMSADDLVSRTQAIVAELKDLEGPLLPILHSVQEAFGHVPDEVKPVIAEALNLSRAEVHGVVSFYHDFRAH”, the “soluble fraction (log2)” value was -0.126.

Consider “HMSADIGAEKAKTIALNHAGVSASNAVFLHAKLDYDDGRRTYEVEFYSGSKEYDYEIDAATGEILSYDFD”, for which the “soluble fraction (log2)” value was -0.929.

Take “HMSAEAYLSFVKKENLRAAVVNYENNKEWLKDVPHERLLDLAVFAKVDMGEPGMSMKFNNWLLSR”: the “soluble fraction (log2)” value is -0.934.

For “HMSAEKDGEWLTLTEAAKHLQVSPHVIRRLIQTGALPAEQVMRGAPHQIRAADLDTDRVKTMIAR”, the “soluble fraction (log2)” value was 0.133.

Regarding “HMSAEKPVKSELFYKSMLNSFEQAVRFMIANGILEDFKSRIVAINNETNHQNWFNKQEFNAIIERF”, the “soluble fraction (log2)” value was -1.49.

With “HMSAERFDFRIGPELAGKRFDQALAEALPQFSRSRLSTWIKDGRATLNGATMRPKDSVHAGDTVVVNAE”, the “soluble fraction (log2)” value was -0.186.

As for “HMSAEVEVPDVVGRQVALAVQLIETKKLRVNVAETYDAKVPPGQVISQSPEAGMKVKEERVITIYVSR”, the “soluble fraction (log2)” value was -1.36.

As to “HMSAGISVADVTNRTYDEGYNTLTAQHLLVNKVYEANETIPLDTIIRTDPVAGTKVPDNTSITVYVSSGK”, the “soluble fraction (log2)” value is 0.382.

With “HMSAGPQGRTPREDELTVGTKVYVSRVGASGVVSSDVSRGKVVVQVGALRLTAAVSELLLLDG”, the “soluble fraction (log2)” value was -1.21.

With “HMSAGYTYQNYQQDLKSGNVQNIHIYLSEEMYSGNVKVIYKNNKSVTFTVTDVTIAEAEARQVGISPIIYE”, the “soluble fraction (log2)” value was -2.38.

On to “HMSAHDLQVVLRWIGTDEPMTDQRYRITTEDGRTFEGRTDDAGLTERVASTIPFGRYSIEALD”, for which the “soluble fraction (log2)” value was -0.278.

“HMSAIEIDAEKILNYLTDRGGKMPYGDTTAPEVIKDKFNISKAAFKRALGFLLRSNKIEQIDGWTYI”: the “soluble fraction (log2)” value is -0.433.

For the sequence “HMSAIKSVTTQLDNTKLRTGPDVSYQYTQSYPANTKLTYINKSGTWYQVKDADGNTGYVASWVVTPSE”, the “soluble fraction (log2)” value came to 0.586.

Take “HMSALIGAHTLERIDSRDFEGVVMAWLPKRDGYDSLYKIYHIEDGDFEELDDREVQAAISLFIEGT”: the “soluble fraction (log2)” value was -0.381.

As to “HMSAPAMTLDSIRSLLNDRDPWVVTQTVEWLVGLGPQVKTILETLTLESSDAARQAQNALDRINVRNYP”, the “soluble fraction (log2)” value was -0.796.

Regarding “HMSAPNPGQMHSWTDTQGRTLQATFIKADATTVTLNWNGRIVPIPLANLNAASQKLARELASAS”, the “soluble fraction (log2)” value was -0.443.

Take “HMSAPRRGETTAASLNLRAGPATDADILAQLPERTPLRVLQEDGEWLRVETHGNEGFVHRQFVAIPGDEP”: the “soluble fraction (log2)” value came out at 0.0338.

Regarding “HMSARRHAVKHLDANQLQTRVARMLSEFGLTAKVSKDPNSNALIIDGAPEAQRIAAQLITTIDKE”, the “soluble fraction (log2)” value amounted to 0.0709.

As for “HMSASSDATRQRVLRAAEQLFGAKGVENVSLREMTTLAGVNLAAVNYHFGSKDALAEAVFEALSER”, the “soluble fraction (log2)” value came out at 0.253.

Turning to “HMSASSEALKTAVRKVLLNNRMTQDRMARDAGLSGSALSQWLHGKYQGDVPALEGRLAAWLADTQAS”, the “soluble fraction (log2)” value was determined as 0.0606.

Consider “HMSASSTAPGSVTLRGAILTAWTAAGGERSKMGLPVGYEVRQADGTVTQTFEKGRISVSPTGTATI”, for which the “soluble fraction (log2)” value is 0.0449.

For “HMSAVNLNDDEKAVYKSIKSGIRSLDELSLRTGMKIYELMAITVSLEMKGLVTKSPDGTLDAT”, the “soluble fraction (log2)” value is -0.743.

In the case of “HMSDAKKRAFSKDEILYSLKNRPFTSFDIESLFDDESKKTFIGLLDKGEISEKKVAGTIFYYLR”, the “soluble fraction (log2)” value is -0.817.

Turning to “HMSDEEAISKLPGVGPAILEKLKEAGYNDIMTIAVDSPKNLAELAEIGEPTAAKIIAAAKKAAD”, the “soluble fraction (log2)” value turned out to be 0.113.

In the case of “HMSDIDIDVENDRAALAIAGGKLNHLVGARGEVLDALQELTRLAVQTSLGERSRLMLDIDNFRSD”, the “soluble fraction (log2)” value was found to be 0.185.

Turning to “HMSDIHARIAAALAALTSPEKIHDLVVDDDGKVSFTFHLTREDPATLVRDARKAVQAVDGVRDVKVNVVDP”, the “soluble fraction (log2)” value is 0.134.

“HMSDKEDIDKYLLTYGDLLFNRTNSSEWVGKTAIYRGEVSAIYAGYLIRIRSFLDAEYLNSVMNSKYA”: the “soluble fraction (log2)” value was found to be 0.1.

Take “HMSDKTSLTDDDKALINSMLPDYDKYPSVAKLQAVEIAKSSSKMATLLMLDERYNETVSEALE”: the “soluble fraction (log2)” value was 0.152.

On to “HMSDLGEIEKIVDEVLAENITKVQEYKDGKKGLMGMFMGQIMKKSGGKADPKIANQLLTEKL”, for which the “soluble fraction (log2)” value stood at 0.11.

Consider “HMSDNHYLLEIFLADLKSDEKFIRELAIFQLHHHIESDKVRAELKAAAETESDPYLKGMIESLLSSTS”, for which the “soluble fraction (log2)” value is -1.53.

Regarding “HMSDNYYSILGIETDATTDMIKRAYRRLSLELHPDRTKDNPILTEKYKKVNEAYGVLNDNDRKHIYDLQNI”, the “soluble fraction (log2)” value was -0.109.

As for “HMSDPELAIPRVVGLSGNDAQAALVKAGFSAVTVVTVKNSEVTSEQVTHVVPAEGAKAKASTPVTVVVSSS”, the “soluble fraction (log2)” value is -0.205.

On to “HMSDRQLKRQANILYTTRKLASKVGYDGLTMRGLAEASEVSPKTLYNLFSSKDELLAAALEDLVGIV”, for which the “soluble fraction (log2)” value is 0.0601.

In the case of “HMSDTFTITTESGRIDKIITAHETTHTRSQVQKWLQDGLVTVNGNPVKANFKVTAGDVVTVTIPEVK”, the “soluble fraction (log2)” value was determined as 0.0601.

As to “HMSDTMTVTNVKYAIYLRSTPSEASDANIIMEIPVGSKVTYLDTPNNTFYKISYGGTVGYSKQIYLTF”, the “soluble fraction (log2)” value is -3.69.

As for “HMSDVLPEAILERRLVKKGNRAVPQVLIKWTKLPATSATWEDFYVLQQRFPTALAWGQAPSPGGQM”, the “soluble fraction (log2)” value was -0.462.

Turning to “HMSDVTPDVVRALRKRLKLTQVQFGEIFGMTSKKVSAWEHGKAEPTEEQKQKIQSLLKENNEQ”, the “soluble fraction (log2)” value is -0.146.

Turning to “HMSEATTVNYKYAVTISDLRIRKGPGTNYGSVGYTGKGVFTIVAEKGGWGKLKSGAGWISLNSKYGHKVS”, the “soluble fraction (log2)” value was -2.03.

For “HMSEEAMVSNFRQQEILELARKDGKVTVDGLAELYDVTVQTIRRDLSDLADSGRLKRVHGGAVVPS”, the “soluble fraction (log2)” value came out at 0.162.

In the case of “HMSEFGENLKKLRTARDLTQQELGAKVGLSKAVVSKYENGLGYPTFDVLIRIAAYFGVTTDYLLGV”, the “soluble fraction (log2)” value was -2.81.

Regarding “HMSEFSDRFRLLKDESGATLKELSEQLDITVPNLSYYMKGREPSYDILIKIADYFGVTTDWLIGRTDER”, the “soluble fraction (log2)” value is -1.18.

On to “HMSEILQLINKIDKKLEKGYTFANISRNHYEKIYKEEILNLYKTSKLKGEAEDSIKEVLESLLGDLRKP”, for which the “soluble fraction (log2)” value was -0.833.

The record behind these values is the domain aggregation screens of Martell et al. (2025).
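Also: 20 min heating vs room temperature control held 20 min.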
